assay: soluble fraction after stress (log2 fold change); higher = more stays soluble; pooled small domains, quantitative proteomics; details: stress: pH 4
In short: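 After pH 4 stress, pooled custom libraries of small protein domains were quantified with high-throughput quantitative proteomics. Aggregation propensity is taken from the fold change in each domain's soluble amount following the acid stress. The scale is log2, where higher values mean more stayed soluble.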

Going from “HMKEDNPIVLINLQAKEGEWVFKGTGLPYVGKYHQHKNGEYMIGIGVLNLNHELKPDEIIIPNPNK” to “HMKEEDYEVFMRLINVRGIGPKSALNILGVISGQEMIQAIENDDIKRLKSLPGIGAKTAGQIVLDLKGKFV”, the “soluble fraction (log2)” value falls from 0.0576 to -0.705.

First: HMKEFIPPVLDDVLKFFSGSLLPDWENQGRLFFSHYNSQGWRKGTGVQVTDWDSLANKWILDEKIKRDARS
Second: HMKEGTIPPVVNRTLSDAEFVLKSYGYELGRVSEQHSDMPKDIVIKQSPEAGTVADPGTRVDVVVSIGKA
The “soluble fraction (log2)” value of the first is lower: -0.214 for the first, 0.0175 for the second.

Compared with “HMKEHDTLALRLTAILRKLNDGEKLVPRELAEEFNVGIRTIQRDLTERLSFLDLEKTNGAYSLPTRNL”, “HMKEIIFRGIGEFILDYKSLVIEFLNKNNYANLSMDAPVDEVNKAVANNMLNEDFVTELLLFQRRVE” is lower in “soluble fraction (log2)” value: -0.36 for the first, -2.16 for the second.

First: HMKEILLITGKGLHSGQDDVYKSAQLSKLRYSVPEFIKSNLEISQLILSVETPLQKDGGDGALLIK
Second: HMKEILVGVEPLSKKQIIIKKGIKGRSDYIIFEKKNYGLPENLKPEEVSIEIALKIIDEKKKRKA
The “soluble fraction (log2)” value of the first is lower: -0.192 for the first, 0.22 for the second.

First: HMKEIPTKKGDMLEIYEANGKYILKYPTFNITMPEVVKEIPKEAVDSYLAGKHDGEELINYANFGFWKS
Second: HMKEKDAYTSEILDTLKNAKLLVVEGTVYPLLTRLKNDGLLNYRWEESTSGPPRKYYGLTDEG
The “soluble fraction (log2)” value of the first is higher: 0.315 for the first, -0.449 for the second.

Compared with “HMKEKIIKEPYDLFTTDKIGQALEVQALLARQGIKVQRRVDGTKSTLFLENYTQSEKDQALLAVVRSGIV”, “HMKEKPLWAIRITELREEHYFTQTDVSKALGIAQTTYAGYETGRHEPDFETMIKIADIYKVSLDYLIGR” is lower in “soluble fraction (log2)” value: 0.167 for the first, -0.288 for the second.

Compared with “HMKELFETLPDVLDAKLLASALSISKAGAYQLLNRPDFPTLQVGGWKLVTKQKLALWMEQHTN”, “HMKELFGQRLREQRLKQNLTLEQLAEKANLSPNYVGMVERGLKEPGLATIVKLLNGLNVSADTLL” is higher in “soluble fraction (log2)” value: -0.511 for the first, 0.155 for the second.

“HMKELLTKQQREEILETVKTKTPKDFGYTAEHWTTGFLGKWIEEHYEVEYKSKTSLYLVFKKASFTYHKPG” and “HMKELTARQIEILDFITNYEWRHGYWPSIRNIQVQFSYKSTNAVMGHLRALERKGAIERIPGQARTFRIH” are within 0.2 log units of each other in “soluble fraction (log2)” value: 0.0606 for the first, 0.102 for the second.

Compared with “HMKEPFETMPDVMDAKQIAEALQISKAGAYNLLNSPDFPTLRIGGRKLVMKNELVEWLKSHTNRK”, “HMKEPPTLEEIKNYFASKLSTELESEKFFNYFESNGWLVGGKTPMKNWQSAANNWLINMSKFN” is lower in “soluble fraction (log2)” value: 0.126 for the first, -0.323 for the second.

Compared with “HMKEPQLGPVRKWSDQTGNFGIEAQFVKREGDNILLKRADQRTISIPLEKLSDADQEHLKQEEQKQAME”, “HMKEQLEAYVNRLFADAALTIRNAEVRQEILQHALDRYDDLIASGKTEQEAYDETVSGIGDVSGLYEHK” is lower in “soluble fraction (log2)” value: -0.312 for the first, -0.526 for the second.

First: HMKETKVIHVHLIFKKTSRFFGSISAIYSEFTAEEIGITEETLRHKGLSDGVSFATKKAIIQQGVLIR
Second: HMKEVDSESAFAERGISEVWIPALQKMGILTLEALDAANPNKVFNDLGGMRKKLKIDAAMPTKDEVTAWIQ
The “soluble fraction (log2)” value of the first is lower: -1.45 for the first, -0.053 for the second.

First: HMKEVKPSDFFLSKLDEDHNLIEKFNALSSFKQKEFIEYIDSAKQEKTKHDRFEKIKPILLSNIGLNDKYR
Second: HMKEVVVPDYFLKQLQKNKKAFITFNNFSPSHKREYVEWITEAKTEETKNRRMKSAIEWMSEGKSRNWKYI
The “soluble fraction (log2)” value of the first is lower: -0.102 for the first, 0.22 for the second.

“HMKFGETLIDLRKRNGLTQEELAAKLYVTRQAVSRWERGEVTPGIDMLKLIANVLNEPVAHLLDW” and “HMKFNRPMSEILQEWENKLGTTSDAELAGLIGVVTMTINRWRKNETKPDLSALNRYDRIVNLVVNNIKQL” are within 0.2 log units of each other in “soluble fraction (log2)” value: -0.435 for the first, -0.321 for the second.

Going from “HMKFPPELVEFIEGLSLLKPPLNYATVHRRAEKLAIKKGWASPSYSTVRNIIRKLSPALTTLAHEG” to “HMKGAADPAIKQKVLDYLDTVEKAKSKEIAKAISEEKSAVDLAVKELAFEDKVEYLYITTTFVALKGKVA”, the “soluble fraction (log2)” value falls from 0.22 to -0.865.

First: HMKGALQIAIEEGFNWNLDKKYWNIVQSTVIAKRLGLKTTSGLKEAIEGMGGEYKRTKKARGYLVPTFKD
Second: HMKGDYWIIDLDKNYQYAIISEPDRQYLWILSRSPNMDTQTLETLKEKIRSKGFDLTYLKQTL
The “soluble fraction (log2)” value of the first is higher: 0.354 for the first, -1.24 for the second.

Compared with “HMKGHQASTTWISERVKDIIKEDPTLGARKLQKRLEIHYNIELSYFKVWSGKNLQWMIFMVL”, “HMKGSYTVKSGDNLWSIARKFYGGSGSTWTKIYSANKSTIESTARRYGRSSSDNGHWIYPGTVLVIP” is higher in “soluble fraction (log2)” value: 0.00439 for the first, 0.405 for the second.

Going from “HMKGVSFEEIERAVRTAQNPEADETAQQHAGMVFSRMEGNELFDKLVQSSSTIGKKITGLMDYYL” to “HMKGYIGESKARNIALKKAPGASITKFEFDKDDGIAVYEVELRKGIYEYELKINAVTGAIIEFEKDIE”, the “soluble fraction (log2)” value rises from -0.378 to 0.147.

“HMKHKYWEIKERIKKDILNEVYKKGESIPSERDLAGIYDVTRVTVQKAMAMLVQEGYIERIHGKGMFVLKN” and “HMKHRFVVGEVLSIGKLQHEITLKTAQGERKFQLDKQDLPASIQDGAKVRAELNEAGRVIDVHPLK” are within 0.2 log units of each other in “soluble fraction (log2)” value: -0.0581 for the first, -0.178 for the second.

“HMKHYMKITDISLQTRDKNRVNVSVDGKYRFSLDVFQVGELGLKVGREYTDEELTALEDESQFG” and “HMKIATIELVKEAVKSKLGKFTKRDIMELVPSVGKTTIENMLKQLIGEGYIERHGKGRATFYVK” are within 0.2 log units of each other in “soluble fraction (log2)” value: 0.0815 for the first, 0.158 for the second.

First: HMKIDANTFTSIEKQLFVLLSKTPTPMGSIFVALAKEDKEAVWEVIHFLEAENRLIMNEDGTIQL
Second: HMKIDEVSFAYIERTLFSMLGKLPTPVNKVIATIGEEKKETIWEVIRFLESENKLITNEDGTLQL
The “soluble fraction (log2)” value of the first is higher: -1.09 for the first, -1.77 for the second.

“HMKIDNIIIYITGGVKKEGVYELPDGSRISDAIEQAEGLKANADTSSINLAYKLEDGMKIKIPLQGEN” and “HMKIDNPEYQKIMDMIPYFFQTRNYDEAIEALSYVIEQEPSFSEAYNKRATFYFMMGDFENSMKDIESTLA” are within 0.2 log units of each other in “soluble fraction (log2)” value: -0.664 for the first, -0.75 for the second.

Compared with “HMKIEEVIEKLKTDSIISRKEYEDIVRQINPNLSDRTIFWQLAKLQDMGVLQKIGQNSFHVRN”, “HMKIERKGDESYLSFVERATSALSDGLIDYQQWGRAVVGEDLYSEENTRRIAKFFAQFIQNLEND” is lower in “soluble fraction (log2)” value: 0.0251 for the first, -1.6 for the second.

Going from “HMKIKAKYTTDFGIRIYAPKPGKNYWRISYVDLDGKLRDTTATSEKTALDKSAEIEVLLRNN” to “HMKILALETSAKAVSAAVSENGRILASGYQDTGLTHSRTLMPIVEHILKNTDLKLSDMDAIAVAVGPG”, the “soluble fraction (log2)” value rises from -0.232 to 0.22.

Going from “HMKIMSLSERHQKILELLKVNGIVSVNSLSRQLNVSSVTIRKDLGLLEEKKLLYRSHGGAIQID” to “HMKINYNEFLRRFLGEKEGDIIEMETGKRIGTHKGYWFHTIGQRKGLGLGGGPWFVIRKDIDENIIYVSHG”, the “soluble fraction (log2)” value falls from -0.213 to -0.643.

Compared with “HMKIPGIGDVYAILARVYSGPQFTWIEAGFPEDDTKAYSYLHTAIRKGSAIAILQAMRTSGALTPTIEKE”, “HMKIPPIMFVRAIMVAGRQSMAIMDIEGVGTGIIVRSGYSFSNGEGKVVRIGPDKVTVNWSGKHLDLAPG” is higher in “soluble fraction (log2)” value: -0.457 for the first, -0.121 for the second.

First: HMKIPQFAVIKQYLEQQIKTAQWAPGRQIPTEQSLADTFSVSRMTARRAVQQLADAGLLERTQGSGTFVAD
Second: HMKISDTITEKILTDNNFSMELAKKIGIQQGSLLSSIRRNRDSRILRLWEAVMFYKEQGYTEEEIFTDY
The “soluble fraction (log2)” value of the first is higher: -0.053 for the first, -0.864 for the second.

Compared with “HMKISELAKKVIASGRVTQWAKHPHIYFVNGMRKVAIELDVNGVFSISMRYYPYDPADRELVENLIRGD”, “HMKIVQHQLQLPVHVAGKFKGMFYKSDFVMSEDYDDDGNMILAVRLPLVDWNKFLKRTDNELSQYIKVTP” is lower in “soluble fraction (log2)” value: -0.572 for the first, -1.53 for the second.

First: HMKKALTAEQEARVRELYFRGINYYSANRYQDAIAEWRKVLAIDPNHEKAKNNIRQTLILLK
Second: HMKKDNLKKIKSIDEDIENELFKLGIYHFEQISIWSSKNAEWIENFLNLPNYVRANQWVEQAKILK
The “soluble fraction (log2)” value of the first is higher: -0.123 for the first, -0.885 for the second.

Compared with “HMKKDRKKMLKEGIVLFEKILRGMELSPTSEPLKKVLTSFNIQNKEDLYVKLGAGVISSEEVIKELKKK”, “HMKKILIVTNRSAGMVVYTIPEEGIRREFTPGETKKIPFEELEKLAYLSGGRTLMENFLKIVDTETTEELG” is lower in “soluble fraction (log2)” value: ≥ 0.43 for the first, -1.44 for the second.

Going from “HMKKIYEEVSEAILTMIKNGTLKPGDKLLPVHQLAEQFQVGRSAVREALSALRAMGLIEMKQGEGTYVKNF” to “HMKKKVDSENLLLDILKQMQPQASTNVLRKMLTNQRISVDDQIIHRAKHVVQEGQTVEIHPKP”, the “soluble fraction (log2)” value rises from -0.6 to 0.139.

First: HMKKLPEKFDYNEISGLRIEAQQKLNEFQPLNIGQASRISGVTPADISVLLVYLEQLKYSNPDLFFKLNPD
Second: HMKKLTAEEIQEAKDILEKIQEIPNFKKIFGDDTIKALENSTKTGVLLPDNIISKIHTLMIRFGIK
The “soluble fraction (log2)” value of the first is lower: -0.743 for the first, -0.248 for the second.

Compared with “HMKKMEEEFALFNAWVDRRLGIPLAAYKENQMQRRILTIMENSGAKTLREYQQLIEGDEGVRAAFLAHIT”, “HMKKPIYLTIANDIEKKIFNNDYPKNERLPSERNLAEEYGVTRMTIRNSIEYLVSKGLLEKRLGSGNYVKR” is higher in “soluble fraction (log2)” value: -1.76 for the first, ≥ 0.43 for the second.

First: HMKKPLEYIDVDKREDFPPVPNGMRYIHFYGGTKNYRAYIAPEDISRADFMEQYPEYVPEHN
Second: HMKKSTLLLFFLKELLEGKKISLKSFALENDINIRTAQRYIEDIEEAFPDNLLKENDFYSFV
The “soluble fraction (log2)” value of the first is higher: 0.0177 for the first, -1.05 for the second.

Going from “HMKKTETVRFTTNVTHGTKIKETDVEVVKISNSALPDKVVKNKTEVIGKYATADLFKGDFATENKVTD” to “HMKKTIIVHVVGEVNTPGIVELNEGARIIDAINGAGGKTEEADMSKINLAYVIEDGSQIYVPSIYE”, the “soluble fraction (log2)” value falls from 0.192 to -1.08.

Compared with “HMKKTITISNYINVRDFATMSELPVNSILSVLMKNGIFVSLNEKIDFDTAWLVGSELGLEVKQKQG”, “HMKKYEFIEDLPGVGPATAQKLRDLGYHTVESLAMATARELEPIGVGEKKAFSMIEAARSAIGFS” is higher in “soluble fraction (log2)” value: -0.818 for the first, 0.00186 for the second.

“HMKKYISEEQAKQAALETAGGGSVVKIKFTTDDGIKVYEIDIINGNYEYEITVHAETGKILDVDKERIH” and “HMKLELSNDFYNKIRLARKENGLTQEDLAEKLNMKVGVIQKIENGVRQTDSNLMKISKFLGVEIYVE” are within 0.2 log units of each other in “soluble fraction (log2)” value: -0.404 for the first, -0.303 for the second.

Going from “HMKLPNGYGGIAKLSGKRRNPWRVRVTKGWSVDEQTGKAKQLFSTLGYYPTRKDALAALSAYNQNP” to “HMKLRLGVNIDPVATVRNARGSAYPDPVRAAIIAQEAGADGITAHLREDRRHIVDQDITSIIKAIDIPLNF”, the “soluble fraction (log2)” value falls from 0.22 to -0.0902.

“HMKLRSIQEQVQYLEKVDNQKAMQIILNMNDKASAVQILRNMKKEKAAAILAQMDPLQAAQILEDLA” and “HMKLSDDIIVDTIKEIIEENKNMIEQRKMGAMGPLMGKAMAKFKGKADGQTVSNVIKDEILNIIN” are within 0.2 log units of each other in “soluble fraction (log2)” value: -0.132 for the first, 0.0647 for the second.

Source: the domain aggregation screens of Martell et al. (2025)
